Test results from PMC2999918.
Values joined by “and” are separate entries in the source; they are usually repeats but may differ in a detail not shown here. Identical values can stand only once.

Tests used:
[1] = target: wild-type (WT) human apolipoprotein A-I, recombinant (human) (UniProt P02647); test: native gel or EMSA
[2] = target: wild-type (WT) human apolipoprotein A-I, recombinant (human) (UniProt P02647); test: AUC
[3] = target: S36A mutant human apolipoprotein A-I, recombinant (human); test: cross-linking
[4] = target: S36A mutant human apolipoprotein A-I, recombinant (human); test: AUC

| stoichiometry N [1] | Ka [2] [M⁻¹] | stoichiometry N [3] | Ka [4] [M⁻¹] | stoichiometry N [4] | Substance |
| --- | --- | --- | --- | --- | --- |
| 2 and 4 | 8.56e+14 |  |  |  | wild-type (WT) human apolipoprotein A-I, recombinant (from UniProt P02647 19-267) (natural protein) |
|  |  | 2 | 6.12e+14 | 4 | S36A mutant human apolipoprotein A-I, recombinant (natural protein) |
